From article PMC10201424, “Biochemical characterisation of Mer3 helicase interactions and the protection of meiotic recombination intermediates” (Nucleic Acids Research, 2022)
Several values for one entry are separate records, joined by “and”; a condition that tells them apart may be missing. Equal values may be shown once.

T1: Mer3-Strep (full-length S. cerevisiae Mer3 with C-terminal 2xStrep-II tag) (S. cerevisiae, UniProt P51979 1-1187, phosphorylated in insect cells; high-confidence sites S17, S80, T100, S398, S958, T1092)
T1 sequence (looked up): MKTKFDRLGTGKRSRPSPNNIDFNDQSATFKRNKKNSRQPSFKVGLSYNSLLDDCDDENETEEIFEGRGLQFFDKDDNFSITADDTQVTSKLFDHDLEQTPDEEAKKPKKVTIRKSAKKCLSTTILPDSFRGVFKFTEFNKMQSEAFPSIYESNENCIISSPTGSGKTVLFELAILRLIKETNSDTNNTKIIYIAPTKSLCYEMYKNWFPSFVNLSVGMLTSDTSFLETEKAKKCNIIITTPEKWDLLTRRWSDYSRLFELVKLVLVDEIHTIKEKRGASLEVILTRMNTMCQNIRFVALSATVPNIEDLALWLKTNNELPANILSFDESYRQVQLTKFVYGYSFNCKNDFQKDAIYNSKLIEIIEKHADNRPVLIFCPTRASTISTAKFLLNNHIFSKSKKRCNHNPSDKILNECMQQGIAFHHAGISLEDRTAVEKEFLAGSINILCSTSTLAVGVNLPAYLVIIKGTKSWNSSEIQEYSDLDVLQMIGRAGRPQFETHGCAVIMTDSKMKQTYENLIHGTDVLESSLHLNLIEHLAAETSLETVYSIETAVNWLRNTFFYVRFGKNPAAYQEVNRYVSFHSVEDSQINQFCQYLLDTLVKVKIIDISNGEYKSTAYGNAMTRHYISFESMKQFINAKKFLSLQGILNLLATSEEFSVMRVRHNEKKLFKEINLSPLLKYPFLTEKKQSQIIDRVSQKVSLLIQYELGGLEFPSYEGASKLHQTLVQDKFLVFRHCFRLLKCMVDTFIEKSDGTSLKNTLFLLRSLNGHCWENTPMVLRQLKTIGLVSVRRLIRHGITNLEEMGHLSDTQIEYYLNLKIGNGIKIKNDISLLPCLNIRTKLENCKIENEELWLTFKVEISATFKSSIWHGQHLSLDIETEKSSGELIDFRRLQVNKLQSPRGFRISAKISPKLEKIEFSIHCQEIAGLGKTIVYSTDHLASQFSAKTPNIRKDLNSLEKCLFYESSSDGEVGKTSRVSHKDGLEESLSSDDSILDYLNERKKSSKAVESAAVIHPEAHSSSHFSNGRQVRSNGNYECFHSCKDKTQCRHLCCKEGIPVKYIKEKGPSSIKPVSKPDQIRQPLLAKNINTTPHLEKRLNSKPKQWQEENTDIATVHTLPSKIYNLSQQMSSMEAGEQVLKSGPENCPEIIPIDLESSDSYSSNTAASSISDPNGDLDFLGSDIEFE

B1: His-Top3 (enzyme, S. cerevisiae, UniProt P13099 1-656, looked up)
chain: MKVLCVAEKNSIAKAVSQILGGGRSTSRDSGYMYVKNYDFMFSGFPFARNGANCEVTMTSVAGHLTGIDFSHDSHGWGKCAIQELFDAPLNEIMNNNQKKIASNIKREARNADYLMIWTDCDREGEYIGWEIWQEAKRGNRLIQNDQVYRAVFSHLERQHILNAARNPSRLDMKSVHAVGTRIEIDLRAGVTFTRLLTETLRNKLRNQATMTKDGAKHRGGNKNDSQVVSYGTCQFPTLGFVVDRFERIRNFVPEEFWYIQLVVENKDNGGTTTFQWDRGHLFDRLSVLTFYETCIETAGNVAQVVDLKSKPTTKYRPLPLTTVELQKNCARYLRLNAKQSLDAAEKLYQKGFISYPRTETDTFPHAMDLKSLVEKQAQLDQLAAGGRTAWASYAASLLQPENTSNNNKFKFPRSGSHDDKAHPPIHPIVSLGPEANVSPVERRVYEYVARHFLACCSEDAKGQSMTLVLDWAVERFSASGLVVLERNFLDVYPWARWETTKQLPRLEMNALVDIAKAEMKAGTTAPPKPMTESELILLMDTNGIGTDATIAEHIDKIQVRNYVRSEKVGKETYLQPTTLGVSLVHGFEAIGLEDSFAKPFQRREMEQDLKKICEGHASKTDVVKDIVEKYRKYWHKTNACKNTLLQVYDRVKASM
notes: Top3 (type IA topoisomerase), S. cerevisiae, from SK1 strain genomic DNA; also called His-tagged Top3; source: Hi5 insect cells, purified (TALON, heparin, ResourceS, SEC); not shown: His6, N-terminal, kept
B2: Top3, untagged (chain of the Top3/Rmi1 complex) (enzyme, S. cerevisiae, UniProt P13099 1-656, looked up)
chain: B1 chain
notes: Top3 (type IA topoisomerase), S. cerevisiae, from SK1 strain genomic DNA; untagged; Same chain as in m10 and m11; source: Hi5 insect cells (co-expressed with GST-Rmi1), purified with Rmi1
B3: Top3/Rmi1 complex (as used in MST and XL-MS) (complex, S. cerevisiae)
chain 1: B1 chain
chain 2: MSFSSILSQDITDDITPPAYSATLGSREQIVFRAYQNEPWLAGTASNLILDKKLVIVDRELLFQVLMVENITKSKLTQIDDIKTKLDPKKQKVDRLRSGAQGNGAKKYEVITQVDMEDDGNVADNNCAKENNSNNNSSAAKNKAVFKLTLQSKSGDVFFAINSTPISWSSCMLGSKIVILPGTVFNRGVFILKDSQVIFLGGINRVWNENRDQKFCDYLESKLQRDKQLVNGGSKKRKAND
notes: Top3 (type IA topoisomerase), S. cerevisiae, from SK1 strain genomic DNA; untagged; Rmi1, S. cerevisiae, from SK1 strain genomic DNA; The methods describe a GST-tagged and an untagged (3C protease cleaved) preparation; source: Hi5 insect cells (co-expressed from pBIG1a), purified
B4: Rmi1 (as used in MST and XL-MS) (natural protein, S. cerevisiae, UniProt Q02685 1-241, looked up)
chain: B3 chain 2
notes: Rmi1, S. cerevisiae, from SK1 strain genomic DNA; The methods describe GST-Rmi1 and untagged (3C protease cleaved) Rmi1; also called Rmi1 alone; source: Hi5 insect cells, purified
B5: MBP-Mlh2 (chain of the MBP-Mlh1/MBP-Mlh2 complex) (natural protein, S. cerevisiae, UniProt Q07980 1-695, looked up)
chain: MTIHQLSPESQWKIVSSSFIYGPVAAVRELLDNSIDSGAKKVFIDVDSTTGGCEYISVKDDGSGVDIIDRPSMCLEYTTSKMSSLGDISILTTLGFRGEALFLLSNLCNQKGSMQVETKTADDVIGEKWLVDSKGGITNGKRYKVSCPVGTTVILRKLLGGLRARYLEISSRPRKTFDELIYLINHYSLIHRNIRFYFSLVSLQKNGAIERKQMQETLDPKISRARSLSLLARLKKPVPLNFIVEENFVIDEKINLDLILPRMVPESDVINIKRRFKFLSVNERALSLNLETGKTISKLLSSIYRDFSLLDPMVWFINLNCDTKLLDVNIEPEKNDVMIKSFEVIFKKIENKLKLLLEERIGIETNMLGDKHVQPSINEKTSPALVIPTPDAENEISKGCGAVSGKDKTDIPQKNSDLIVPTFYDEANLENTTIVAATPSPTKFSEDKALDEQTQLTISSYRSSSSGSMASEDSTNWRHNFQQELSENSEVAGAGSSTLPSSLTYNYIETIPENEDLELSKDASISNPFMITKIRNVNKKLSENLLEAKRTSCGDANKRGMPNERQLSNTEKKELIKLQQTYGKRNNTVDMTIPRNSKKKVTDNYIKKASCMHKTRPKLMHFSEYTNNYVYTLKNEKIVKHDSDNFAKETLWLRSRDDATSPSSSLLQALRAHVKKPGHIEATTNEWCLFTPDSP
notes: Mlh2, S. cerevisiae, from SK1 strain genomic DNA; Same chain as in m6; source: Hi5 insect cells (co-expressed with MBP-Mlh1), purified (MBP-trap, heparin, SEC); not shown: His6, N-terminal, kept; MBP, N-terminal, kept

Experiments:
[1] = biological target: Mer3-Strep (full-length S. cerevisiae Mer3 with C-terminal 2xStrep-II tag) (S. cerevisiae) (UniProt P51979); test: SEC-MALS; full-length Mer3, 10 μM at injection, Superose 6 5/150; 30 mM HEPES pH 6.8, 300 mM NaCl, 1 mM MgCl2, 5 μM ZnCl2, 1 mM TCEP
[2] = biological target: T1, Mer3-Strep (full-length S. cerevisiae …); test: pull-down; Mer3-Strep (0.7 μM) held by anti-Strep antibody and protein G beads (the legend says StrepTactin pulldown), His-Top3 1.3 μM; 25 mM HEPES pH 7.5, 5% glycerol, 50 mM NaCl, 1 mM TCEP, 0.1% Tween-20; western blot; details: both partners purified
[3] = biological target: T1, Mer3-Strep (full-length S. cerevisiae …); test: cross-linking; XL-MS with DSBU, proteins 3 μM, 1 h at 25°C; 30 mM HEPES 6.8, 150 mM NaCl, 5% glycerol, 1 mM MgCl2, 1 mM TCEP; samples: Mer3, Mlh1/Mlh2, Mer3/Mlh1/Mlh2, Top3/Rmi1, Mer3/Top3/Rmi1; details: both partners purified
[4] = biological target: T1, Mer3-Strep (full-length S. cerevisiae …); test: MST; 45 nM RED-NHS labelled Mer3, partner titrated; 50 mM Tris–HCl pH 7.4, 150 mM NaCl, 10 mM MgCl2, 0.05% Tween-20; 25°C; triplicates; details: both partners purified
[5] = biological target: B2; test: cross-linking; XL-MS with DSBU, proteins 3 μM, 1 h at 25°C; 30 mM HEPES 6.8, 150 mM NaCl, 5% glycerol, 1 mM MgCl2, 1 mM TCEP; samples: Mer3, Mlh1/Mlh2, Mer3/Mlh1/Mlh2, Top3/Rmi1, Mer3/Top3/Rmi1; details: both partners purified

**Q.** For “Mer3-Strep (full-length S. cerevisiae Mer3 with C-terminal 2xStrep-II tag) (from UniProt P51979 1-1187) (enzyme)”, which stoichiometry N [1] is on record?
**A.** 2

**Q.** Does B1 bind [2]?
**A.** binds

**Q.** Does B2 bind [3]?
**A.** binds

**Q.** B3 was tested. Which Kd [4] did it give?
**A.** 844 ± 148 nM

**Q.** Which Kd [4] does the source give for B4 here?
**A.** 1990 nM and 1980 nM

**Q.** Does B4 bind [5]?
**A.** binds

**Q.** Does B5 bind [3]?
**A.** binds
